# Assay results from patent publication EP1664122B1 (Novartis AG, dated 2010).
# T1: cynomolgus monkey CD45 on the T cell line HSC-F (cynomolgus monkey, UniProt A0A2K5VQ76 26-1301)
# T1 construct: whole, on cells; also called cynomolgus HSC-F cell target
# T1 sequence: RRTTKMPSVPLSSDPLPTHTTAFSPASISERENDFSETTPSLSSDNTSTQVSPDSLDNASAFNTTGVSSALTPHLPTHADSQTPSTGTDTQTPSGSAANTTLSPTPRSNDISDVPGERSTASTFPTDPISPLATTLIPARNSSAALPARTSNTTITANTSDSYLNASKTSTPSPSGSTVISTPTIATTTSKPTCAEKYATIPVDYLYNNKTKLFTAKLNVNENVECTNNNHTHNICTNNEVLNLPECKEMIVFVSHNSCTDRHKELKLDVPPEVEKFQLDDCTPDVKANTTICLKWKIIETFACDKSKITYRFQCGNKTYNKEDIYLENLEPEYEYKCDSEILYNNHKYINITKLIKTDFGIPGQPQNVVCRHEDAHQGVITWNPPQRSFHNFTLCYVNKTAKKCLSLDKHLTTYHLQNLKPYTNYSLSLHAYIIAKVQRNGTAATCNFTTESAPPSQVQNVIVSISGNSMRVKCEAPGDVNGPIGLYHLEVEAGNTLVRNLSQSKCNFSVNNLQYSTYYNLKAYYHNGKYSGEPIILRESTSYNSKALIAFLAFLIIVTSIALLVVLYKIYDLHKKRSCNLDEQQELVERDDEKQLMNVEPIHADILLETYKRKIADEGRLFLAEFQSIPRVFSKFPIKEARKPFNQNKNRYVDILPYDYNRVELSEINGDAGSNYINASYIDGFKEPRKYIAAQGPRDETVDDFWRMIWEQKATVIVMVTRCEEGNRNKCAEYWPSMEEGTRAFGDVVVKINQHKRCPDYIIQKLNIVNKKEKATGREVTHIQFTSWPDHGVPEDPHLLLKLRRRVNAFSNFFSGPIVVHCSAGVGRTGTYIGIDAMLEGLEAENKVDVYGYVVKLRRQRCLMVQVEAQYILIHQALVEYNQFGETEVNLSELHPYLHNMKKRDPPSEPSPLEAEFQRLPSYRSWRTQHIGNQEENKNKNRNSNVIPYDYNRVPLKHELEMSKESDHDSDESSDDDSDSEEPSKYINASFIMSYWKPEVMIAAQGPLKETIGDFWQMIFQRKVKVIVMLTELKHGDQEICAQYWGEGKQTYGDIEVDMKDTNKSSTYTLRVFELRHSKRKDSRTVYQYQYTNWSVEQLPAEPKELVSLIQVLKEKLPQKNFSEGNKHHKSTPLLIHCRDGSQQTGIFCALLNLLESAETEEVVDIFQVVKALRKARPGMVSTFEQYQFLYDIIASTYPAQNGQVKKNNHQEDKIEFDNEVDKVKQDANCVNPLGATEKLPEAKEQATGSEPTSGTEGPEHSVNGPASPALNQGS
# Assays:
# [1] = molecular target: human CD45 on the human T cell line PEER (human) (UniProt P08575); assay: FACS competition with FITC-conjugated mA6 on PEER cells; curve fit assuming divalent antibody binding
# [2] = molecular target: T1, cynomolgus monkey CD45 on the T cell …; assay: FACS competition with FITC-conjugated mA6 on HSC-F cells; curve fit assuming divalent antibody binding
binder,measurement,setting,value
"humanised antibody VHE-N73D/humV1 (antibody, V domains shown, Constant parts are human gamma-1 and human kappa; expressed in Sp2/0 cells; also called VHEN73D/VL1; VHEN73D/VLh) VH: EVQLVESGAEVKKPGASVKVSCKASGYTFTNYIIHWVKQEPGQGLEWIGYFNPYNHGTKYNEKFKGRATLTADKSISTAYMELSSLRSEDTAVYYCARSGPYAWFDTWGQGTTVTVSS VL: DILLTQSPATLSLSPGERATLSCRASQNIGTSIQWYQQKPGQAPRLLIRSSSESISGIPSRFSGSGSGTDFTLTISSLEPEDFAVYYCQQSNTWPFTFGQGTKLEIK",Kd,[1],2.44 nM
same,Kd,[2],1.67 nM
